Reference: patent US20240190962A1 (IMMUNOWAKE, published 2024)

T1: mouse PD-1 (mouse, UniProt Q02242 25-167, limits assumed)
T1 construct: also called mPD-1
T1 sequence (looked up): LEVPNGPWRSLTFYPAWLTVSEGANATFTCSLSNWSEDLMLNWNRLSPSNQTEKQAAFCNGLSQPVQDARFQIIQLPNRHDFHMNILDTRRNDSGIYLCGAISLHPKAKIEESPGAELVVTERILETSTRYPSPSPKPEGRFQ


Key:
CD4 on CD4+ T cells = biological target: T2, CD4 on CD4+ T cells (UniProt P01730 26-458, limits assumed); test: FACS
T2 construct: whole, on cells

[1] = biological target: human IL-12 receptor complex (IL-12Rβ1, IL-12Rβ2) (human, UniProt P42701 24-662; Q99665 24-862); test: cell-based or functional assay
Chain of human IL-12 receptor complex (IL-12Rβ1, IL-12Rβ2) (Q99665 24-862, chain 2 of 2, other chains not shown): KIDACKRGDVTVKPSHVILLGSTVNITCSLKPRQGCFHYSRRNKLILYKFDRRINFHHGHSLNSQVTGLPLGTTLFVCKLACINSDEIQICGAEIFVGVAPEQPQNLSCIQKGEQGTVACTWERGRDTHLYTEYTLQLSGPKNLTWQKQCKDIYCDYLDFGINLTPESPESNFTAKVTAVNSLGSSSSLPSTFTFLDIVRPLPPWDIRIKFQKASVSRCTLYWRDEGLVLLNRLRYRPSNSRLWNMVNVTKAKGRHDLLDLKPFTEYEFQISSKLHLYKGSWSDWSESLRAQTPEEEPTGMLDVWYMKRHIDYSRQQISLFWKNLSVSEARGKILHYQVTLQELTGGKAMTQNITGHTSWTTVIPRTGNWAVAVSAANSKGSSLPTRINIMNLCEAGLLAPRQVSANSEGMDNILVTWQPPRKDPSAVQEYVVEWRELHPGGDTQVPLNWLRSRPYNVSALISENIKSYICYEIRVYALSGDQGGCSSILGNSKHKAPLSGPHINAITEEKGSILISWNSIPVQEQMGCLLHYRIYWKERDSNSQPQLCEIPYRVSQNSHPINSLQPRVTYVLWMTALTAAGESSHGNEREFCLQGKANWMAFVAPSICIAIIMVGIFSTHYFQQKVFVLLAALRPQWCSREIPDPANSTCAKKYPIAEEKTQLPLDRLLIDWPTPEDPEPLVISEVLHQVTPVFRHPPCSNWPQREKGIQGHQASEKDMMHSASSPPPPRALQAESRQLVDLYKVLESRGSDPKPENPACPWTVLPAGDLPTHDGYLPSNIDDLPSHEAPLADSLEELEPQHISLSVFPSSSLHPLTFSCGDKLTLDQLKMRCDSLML

mouse PD-1 = biological target: T1, mouse PD-1; test: PD-L2-Fc format, calibrated on PD-L2(wt)-Fc
human PD-1 = biological target: T3, human PD-1 (human, UniProt Q15116 25-167, limits assumed); test: PD-L2-Fc format, calibrated on PD-L2(wt)-Fc
T3 construct: also called hPD-1
T3 sequence (Q15116 25-167 limits assumed): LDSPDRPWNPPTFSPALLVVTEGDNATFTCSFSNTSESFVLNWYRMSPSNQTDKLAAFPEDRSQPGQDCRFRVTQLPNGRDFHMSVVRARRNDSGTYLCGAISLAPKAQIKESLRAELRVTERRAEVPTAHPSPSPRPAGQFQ

Row | binding result (CD4 on CD4+ T cells) | IL-12 biological activity (IFN-γ release), CD4+ T cells [1] [%] | IL-12 biological activity (IFN-γ release), CD8+ T cells [1] [%] | Kd (mouse PD-1) [nM] | Kd (human PD-1) [nM] | Binder
1 | no binding | 0 | 11 | – | – | Fab-IL-12(E59A/F60A)-Fc-CD8 Ab (other) light: DIQMTQTTSSLSASLGDRVTISCRASQDINNYLNWYQQKSDGTIKLLIYYTSRSYSGVPSRFSGSGSGTDYSLTISNRRQEDIATYFCQQGKTLPWTFGGGTKLEIKRTVAAPSVFIFPPSDEQLKSGTASVVCLLNNFYPREAKVQWKVDNALQSGNSQESVTEQDSKDSTYSLSSTLTLSKADYEKHKVYACEVTHQGLSSPVTKSFNRGEC heavy 1: EVQLQQSGPELVKPGASVKMSCKASGYTFTDYYMKWVKQSHGKSLEWIGHINPNNDDTFYTQKFKGRATLTVDKSSSTAYMQLNSLTSEDSAVYYCVRDDYDGGWFAYWGQGTLVTVSSASTKGPSVFPLAPSSKSTSGGTAALGCLVKDYFPEPVTVSWNSGALTSGVHTFPAVLQSSGLYSLSSVVTVPSSSLGTQTYICNVNHKPSNTKVDKKVEPKSCDKTHTCPPCPAPEKKGGPSVFLFPPKPKDTLMISRTPEVTCVVVDVSHEDPEVKFNWYVDGVEVHNAKTKPREEQYNSTYRVVSVLTVLHQDWLNGKEYKCKVSNKALPAPIEKTISKAKGQPREPQVYVLPPSREEMTKNQVSLLCLVKGFYPSDIAVEWESNGQPENRYMTWPPVLDSDGSFFLYSKLTVDKSRWQQGNVFSCSVMHEALHNHYTQKSLSLSPGK heavy 2: EVQLQQSGPELVKPGASVKMSCKASGYTFTDYYMKWVKQSHGKSLEWIGHINPNNDDTFYTQKFKGRATLTVDKSSSTAYMQLNSLTSEDSAVYYCVRDDYDGGWFAYWGQGTLVTVSSASTKGPSVFPLAPSSKSTSGGTAALGCLVKDYFPEPVTVSWNSGALTSGVHTFPAVLQSSGLYSLSSVVTVPSSSLGTQTYICNVNHKPSNTKVDKKVEPKSCDKPGSGIWELKKDVYVVELDWYPDAPGEMVVLTCDTPEEDGITWTLDQSSEVLGSGKTLTIQVKAAGDAGQYTCHKGGEVLSHSLLLLHKKEDGIWSTDILKDQKEPKNKTFLRCEAKNYSGRFTCWWLTTISTDLTFSVKSSRGSSDPQGVTCGAATLSAERVRGDNKEYEYSVECQEDSACPAAEESLPIEVMVDAVHKLKYENYTSSFFIRDIIKPDPPKNLQLKPLKNSRQVEVSWEYPDTWSTPHSYFSLTFCVQVQGKSKREKKDRVFTDKTSATVICRKNASISVRAQDRYYSSSWSEWASVPCSGGGGSGGGGSGGGGSGGGGSGRNLPVATPDPGMFPCLHHSQNLLRAVSNMLQKARQTLEFYPCTSEEIDHEDITKDKTSTVEACLPLELTKNESCLNSRETSFITNGSCLASRKTSFMMALCLSSIYEDLKMYQVEFKTMNAKLLMDPKRQIFLDQNMLAVIDELMQALNFNSETVPQKSSLEEPDFYKTKIKLCILLHAFRIRAVTIDRVMSYLNASDKTHTCPPCPAPEDEGGPSVFLFPPKPKDTLMISRTPEVTCVVVDVSHEDPEVKFNWYVDGVEVHNAKTKPREEQYNSTYRVVSVLTVLHQDWLNGKEYKCKVSNKALPAPIEKTISKAKGQPREPQVYVYPPSREEMTKNQVSLTCLVKGFYPSDIAVEWESNGQPENNYKTTPPVLDEDGSFALVSKLTVDKSRWQQGNVFSCSVMHEALHNHYTQKSLSLSPGK
2 | no binding | 1.2 | 21.9 | – | – | Fab-IL-12(F60A)-Fc-CD8 Ab (other, copies: 2 + 1 + 1) light: DIQMTQTTSSLSASLGDRVTISCRASQDINNYLNWYQQKSDGTIKLLIYYTSRSYSGVPSRFSGSGSGTDYSLTISNRRQEDIATYFCQQGKTLPWTFGGGTKLEIKRTVAAPSVFIFPPSDEQLKSGTASVVCLLNNFYPREAKVQWKVDNALQSGNSQESVTEQDSKDSTYSLSSTLTLSKADYEKHKVYACEVTHQGLSSPVTKSFNRGEC heavy 1: EVQLQQSGPELVKPGASVKMSCKASGYTFTDYYMKWVKQSHGKSLEWIGHINPNNDDTFYTQKFKGRATLTVDKSSSTAYMQLNSLTSEDSAVYYCVRDDYDGGWFAYWGQGTLVTVSSASTKGPSVFPLAPSSKSTSGGTAALGCLVKDYFPEPVTVSWNSGALTSGVHTFPAVLQSSGLYSLSSVVTVPSSSLGTQTYICNVNHKPSNTKVDKKVEPKSCDKTHTCPPCPAPEKKGGPSVFLFPPKPKDTLMISRTPEVTCVVVDVSHEDPEVKFNWYVDGVEVHNAKTKPREEQYNSTYRVVSVLTVLHQDWLNGKEYKCKVSNKALPAPIEKTISKAKGQPREPQVYVLPPSREEMTKNQVSLLCLVKGFYPSDIAVEWESNGQPENRYMTWPPVLDSDGSFFLYSKLTVDKSRWQQGNVFSCSVMHEALHNHYTQKSLSLSPGK heavy 2: EVQLQQSGPELVKPGASVKMSCKASGYTFTDYYMKWVKQSHGKSLEWIGHINPNNDDTFYTQKFKGRATLTVDKSSSTAYMQLNSLTSEDSAVYYCVRDDYDGGWFAYWGQGTLVTVSSASTKGPSVFPLAPSSKSTSGGTAALGCLVKDYFPEPVTVSWNSGALTSGVHTFPAVLQSSGLYSLSSVVTVPSSSLGTQTYICNVNHKPSNTKVDKKVEPKSCDKPGSGIWELKKDVYVVELDWYPDAPGEMVVLTCDTPEEDGITWTLDQSSEVLGSGKTLTIQVKEAGDAGQYTCHKGGEVLSHSLLLLHKKEDGIWSTDILKDQKEPKNKTFLRCEAKNYSGRFTCWWLTTISTDLTFSVKSSRGSSDPQGVTCGAATLSAERVRGDNKEYEYSVECQEDSACPAAEESLPIEVMVDAVHKLKYENYTSSFFIRDIIKPDPPKNLQLKPLKNSRQVEVSWEYPDTWSTPHSYFSLTFCVQVQGKSKREKKDRVFTDKTSATVICRKNASISVRAQDRYYSSSWSEWASVPCSGGGGSGGGGSGGGGSGGGGSGRNLPVATPDPGMFPCLHHSQNLLRAVSNMLQKARQTLEFYPCTSEEIDHEDITKDKTSTVEACLPLELTKNESCLNSRETSFITNGSCLASRKTSFMMALCLSSIYEDLKMYQVEFKTMNAKLLMDPKRQIFLDQNMLAVIDELMQALNFNSETVPQKSSLEEPDFYKTKIKLCILLHAFRIRAVTIDRVMSYLNASDKTHTCPPCPAPEDEGGPSVFLFPPKPKDTLMISRTPEVTCVVVDVSHEDPEVKFNWYVDGVEVHNAKTKPREEQYNSTYRVVSVLTVLHQDWLNGKEYKCKVSNKALPAPIEKTISKAKGQPREPQVYVYPPSREEMTKNQVSLTCLVKGFYPSDIAVEWESNGQPENNYKTTPPVLDEDGSFALVSKLTVDKSRWQQGNVFSCSVMHEALHNHYTQKSLSLSPGK

More lines, now with the values behind:

Row | Binder | binding result (CD4 on CD4+ T cells) | IL-12 biological activity (IFN-γ release), CD4+ T cells [1] [%] | IL-12 biological activity (IFN-γ release), CD8+ T cells [1] [%] | Kd (mouse PD-1) [nM] | Kd (human PD-1) [nM]
3 | PD-L2(mut2)-Fc (Fc fusion, also called PD-L2(S58V)) chain 1: LFTVTVPKELYIIEHGSNVTLECNFDTGSHVNLGAITAVLQKVENDTSPHRERATLLEEQLPLGKASFHIPQVQVRDEGQYQCIIIYGVAWDYKYLTLKVKASYRKINTHILKVPETDEVELTCQATGYPLAEVSWPNVSVPANTSHSRTPEGLYQVTSVLRLKPPPGRNFSCVFWNTHVRELTLASIDLQSQMEPRTHPTGGGGSGGGDKTHTCPPCPAPEDEGGPSVFLFPPKPKDTLMISRTPEVTCVVVDVSHEDPEVKFNWYVDGVEVHNAKTKPREEQYNSTYRVVSVLTVLHQDWLNGKEYKCKVSNKALPAPIEKTISKAKGQPREPQVYVYPPSREEMTKNQVSLTCLVKGFYPSDIAVEWESNGQPENNYKTTPPVLDEDGSFALVSKLTVDKSRWQQGNVFSCSVMHEALHNHYTQKSLSLSPGK chain 2: LFTVTVPKELYIIEHGSNVTLECNFDTGSHVNLGAITAVLQKVENDTSPHRERATLLEEQLPLGKASFHIPQVQVRDEGQYQCIIIYGVAWDYKYLTLKVKASYRKINTHILKVPETDEVELTCQATGYPLAEVSWPNVSVPANTSHSRTPEGLYQVTSVLRLKPPPGRNFSCVFWNTHVRELTLASIDLQSQMEPRTHPTGGGGSGGGDKTHTCPPCPAPEKKGGPSVFLFPPKPKDTLMISRTPEVTCVVVDVSHEDPEVKFNWYVDGVEVHNAKTKPREEQYNSTYRVVSVLTVLHQDWLNGKEYKCKVSNKALPAPIEKTISKAKGQPREPQVYVLPPSREEMTKNQVSLLCLVKGFYPSDIAVEWESNGQPENRYMTWPPVLDSDGSFFLYSKLTVDKSRWQQGNVFSCSVMHEALHNHYTQKSLSLSPGK | – | – | – | 230 | 350
4 | PD-L2(mut4)-Fc (Fc fusion, also called PD-L2(T56V/S58V/Q60L)) chain 1: LFTVTVPKELYIIEHGSNVTLECNFDTGSHVNLGAIVAVLLKVENDTSPHRERATLLEEQLPLGKASFHIPQVQVRDEGQYQCIIIYGVAWDYKYLTLKVKASYRKINTHILKVPETDEVELTCQATGYPLAEVSWPNVSVPANTSHSRTPEGLYQVTSVLRLKPPPGRNFSCVFWNTHVRELTLASIDLQSQMEPRTHPTGGGGSGGGDKTHTCPPCPAPEDEGGPSVFLFPPKPKDTLMISRTPEVTCVVVDVSHEDPEVKFNWYVDGVEVHNAKTKPREEQYNSTYRVVSVLTVLHQDWLNGKEYKCKVSNKALPAPIEKTISKAKGQPREPQVYVYPPSREEMTKNQVSLTCLVKGFYPSDIAVEWESNGQPENNYKTTPPVLDEDGSFALVSKLTVDKSRWQQGNVFSCSVMHEALHNHYTQKSLSLSPGK chain 2: LFTVTVPKELYIIEHGSNVTLECNFDTGSHVNLGAIVAVLLKVENDTSPHRERATLLEEQLPLGKASFHIPQVQVRDEGQYQCIIIYGVAWDYKYLTLKVKASYRKINTHILKVPETDEVELTCQATGYPLAEVSWPNVSVPANTSHSRTPEGLYQVTSVLRLKPPPGRNFSCVFWNTHVRELTLASIDLQSQMEPRTHPTGGGGSGGGDKTHTCPPCPAPEKKGGPSVFLFPPKPKDTLMISRTPEVTCVVVDVSHEDPEVKFNWYVDGVEVHNAKTKPREEQYNSTYRVVSVLTVLHQDWLNGKEYKCKVSNKALPAPIEKTISKAKGQPREPQVYVLPPSREEMTKNQVSLLCLVKGFYPSDIAVEWESNGQPENRYMTWPPVLDSDGSFFLYSKLTVDKSRWQQGNVFSCSVMHEALHNHYTQKSLSLSPGK | – | – | – | 220 | 255
